Results reported in patent US20220033460A1, “IDENTIFICATION AND USE OF T CELL EPITOPES IN DESIGNING DIAGNOSTIC AND THERAPEUTIC APPROACHES FOR COVID-19” (priority 2020, published 2022).
Where two headings read alike, the source gives them in different places.

What was measured:
[1] = biological target: DRB1*15:01; details: modification not given
[2] = biological target: DRB1*15:01; details: modification not given; remark: listed apart in the source
[3] = biological target: DRB1*07:01; details: modification not given
[4] = biological target: DRB1*15:01; details: modification not given; remark: listed apart in the source
[5] = biological target: DRB1*15:01; details: modification not given; remark: listed apart in the source
[6] = biological target: DRB1*07:01; details: modification not given; remark: listed apart in the source
[7] = biological target: DRB1*07:01; details: modification not given; remark: listed apart in the source
[8] = biological target: DRB1*07:01; details: modification not given; remark: listed apart in the source
[9] = biological target: DRB1*15:01; details: modification not given; remark: listed apart in the source
[10] = biological target: DRB1*15:01; details: modification not given; remark: listed apart in the source
[11] = biological target: DRB1*07:01; details: modification not given; remark: listed apart in the source
[12] = biological target: DRB1*07:01; details: modification not given; remark: listed apart in the source
[13] = biological target: DRB1*15:01; details: modification not given; remark: listed apart in the source
[14] = biological target: DRB01*15:01; details: chains peptide; modification not given
[15] = biological target: DRB01*07:01; details: chains peptide; modification not given
[16] = biological target: DRB01*11:01; details: chains peptide; modification not given
[17] = biological target: DRB01*04:04; details: chains peptide; modification not given
[18] = biological target: DRB01*04:04; details: modification not given
[19] = biological target: DRB01*11:01; details: modification not given
[20] = biological target: DRB01*07:01; details: modification not given
[21] = biological target: DRB1*15:01; details: modification not given; remark: listed apart in the source
[22] = biological target: DRB1*07:01; details: modification not given; remark: listed apart in the source
[23] = biological target: SARS-CoV-2 peptide on HLA-A*24:02 (human); experiment: barcoded tetramer library on ex vivo CD8+ T cells, single-cell sequencing; T cell clone or line; details: chains Valpha:Vbeta
[24] = biological target: DRB01*15:01; details: modification not given
[25] = biological target: DRB1*07:01; details: modification not given; remark: listed apart in the source
[26] = biological target: DRB1*15:01; details: modification not given; remark: listed apart in the source
[27] = biological target: DRB1*07:01; details: modification not given; remark: listed apart in the source
[28] = biological target: DRB1*07:01; details: modification not given; remark: listed apart in the source
[29] = biological target: DRB1*07:01; details: modification not given; remark: listed apart in the source
[30] = biological target: DRB1*15:01; details: modification not given; remark: listed apart in the source
[31] = biological target: DRB1*07:01; details: modification not given; remark: listed apart in the source
[32] = biological target: DRB1*15:01; details: modification not given; remark: listed apart in the source
[33] = biological target: DRB1*07:01; details: modification not given; remark: listed apart in the source
[34] = biological target: DRB1*15:01; details: modification not given; remark: listed apart in the source
[35] = biological target: DRB1*07:01; details: modification not given; remark: listed apart in the source
[36] = biological target: DRB1*07:01; details: modification not given; remark: listed apart in the source
[37] = biological target: DRB1*15:01; details: modification not given; remark: listed apart in the source

PLSETKCTLKSFTVE [… (position 295)] gave an IC50 [1] of 15.5 µM.

With TSVDCTMYICGDSTE [… (position 734)] the IC50 [2] was 36.7 µM.

Work on NFRVQPTESIVRFPN [… (position 317)] yielded an IC50 [3] of 1.62 µM and an IC50 [4] of 1.02 µM.

For TFEYVSQPFLMDLEG [… (position 167)], the IC50 [5] was 7.67 µM and the IC50 [6] was 0.442 µM.

In the case of PFAMQMAYRFNGIGV [… (position 897)], the IC50 [7] is reported as 0.158 µM.

Binder NVVIKVCEFQFCNDP [… (position 125)] has an IC50 [8] of 6.61 µM.

KLPDDFTGCVIAWNS [… (position 424)] was tested, and the IC50 [9] was 2.06 µM.

Work on NSPRRARSVASQSII [… (position 679)] yielded an IC50 [10] of 25.5 µM and an IC50 [11] of 0.206 µM.

KKFLPFQQFGRDIAD [… (position 557)] gave an IC50 [12] of 1.63 µM and an IC50 [13] of 6.44 µM.

With RGHLRIAGHHLGRCDIKDLPKEI [SEQ ID NO 307] the IC50 [14] was 5.09 µM, the IC50 [15] was 10.2 µM and the IC50 [16] was 0.561 µM. It also gave an IC50 [17] of 1.73 µM.

Work on PKYVKQNTLKLAT yielded an IC50 [18] of 5.31 µM, an IC50 [19] of 0.257 µM and an IC50 [20] of 2.32 µM.

With FRSSVLHSTQDLFLP [… (position 43)] the IC50 [21] was 5.57 µM and the IC50 [22] was 0.085 µM.

B1: TCR_101 (protein)
chain 1: EDQVTQSPEALRLQEGESSSLNCSYTVSGLRGLFWYRQDPGKGPEFLFTLYSAGEEKEKERLKATLTKKESFLHITAPKPEDSATYLCAVHLNDYKLSFGAGTTVTVRA
chain 2: NAGVMQNPRHLVRRRGQEARLRCSPVKGHSHVYWYRQLPEEGLKFMVYLQKENIIDESGMPKERFSAEFPKEGPSILRIQQVVRGDSAAYFCASSRPSGQGNNGYTFGSGTRLTVV
Binder B1 has a No. of Cells [23] of 2 cells.

TLLALHRSYLTPGDS gave an IC50 [24] of 0.257 µM.

Binder ASQSIIAYTMSLGAE [… (position 688)] has an IC50 [25] of 0.124 µM.

DSLSSTASALGKLQD [… (position 936)] was tested, and the IC50 [26] was 10.9 µM and the IC50 [27] was 1.02 µM.

B2: TCR_76 (protein)
chain 1: QQQVKQSPQSLIVQKGGISIINCAYENTAFDYFPWYQQFPGKGPALLIAIRPDVSEKKEGRFTISFNKSAKQFSLHIMDSQPGDSATYFCAASNRGGSEKLVFGKGTKLTVNP
chain 2: NAGVTQTPKFQVLKTGQSMTLQCAQDMNHEYMSWYRQDPGMGLRLIHYSVGAGITDQGEVPNGYNVSRSTTEDFPLRLLSAAPSQTSVYFCASSYHAGDRGFGYTFGSGTRLTVV
In the case of B2, the No. of Cells [23] is reported as 2 cells.

PLVSSQCVNLTTRTQ [… (position 9)] was tested, and the IC50 [28] was 0.838 µM.

GVYFASTEKSNIIRG [… (position 89)] was tested, and the IC50 [29] was 0.099 µM and the IC50 [30] was 15.5 µM.

TLLALHRSYLTPGDS [… (position 240)] showed an IC50 [31] of 0.298 µM.

B3: TCR_109 (protein)
chain 1: AQKITQTQPGMFVQEKEAVTLDCTYDTSDQSYGLFWYKQPSSGEMIFLIYQGSYDEQNATEGRYSLNFQKARKSANLVISASQLGDSAMYFCAMRDSNSNSGYALNFGKGTSLLVTP
chain 2: DAEITQSPRHKITETGRQVTLACHQTWNHNNMFWYRQDLGHGLRLIHYSYGVQDTNKGEVSDGYSVSRSNTEDLPLTLESAASSQTSVYFCASSDGHQGLQETQYFGPGTRLLVL
In the case of B3, the No. of Cells [23] is reported as 2 cells.

With QKFNGLTVLPPLLTD [… (position 853)] the IC50 [32] was 1.71 µM.

PAYTNSFTRGVYYPD [… (position 26)] was tested, and the IC50 [33] was 0.153 µM.

In the case of TVEKGIYQTSNFRVQ [… (position 307)], the IC50 [34] is reported as 0.378 µM and the IC50 [35] is reported as 0.316 µM.

TWRVYSTGSNVFQTR [… (position 632)] showed an IC50 [36] of 0.22 µM and an IC50 [37] of 1.95 µM.
